By EC50 (read off the curve) is commonly meant the midpoint of the concentration-response curve. The Kd is the equilibrium constant for the complex coming apart. The term koff denotes the first-order rate constant of dissociation. Broadly, the kon is the rate constant with which the complex forms.

B1: Fc-PD224D1 scFv IgG1 null (Fc fusion, not shown: a dimerising Fc or GST; small tags and cut ends)
scFv: EVQLVESGGGLVQPGGSLRLSCTASGFSLSSYAMSWVRQAPGKGLEYIGYIGDTTGIAYASWANGRFTISKDNTKNTVDLQMNSLRAEDTAVYYCARGWSYLDIWGQGTLVTVSSGGGGSGGGGSGGGGSGGGGSALVMTQSPSSLSASVGDRVTITCQASQNIYSNLAWYQQKPGKVPKLLIYQASTLASGVPSRFSGSGYGTDFTLTISSLQPEDVATYYCQGGYYSAALNTFGGGTKVEIK
notes: a component control of the bispecific antibody
B2: PL230C6 mAb (antibody, V domains shown)
VH: QSVEESGGGLVQPGGSLRLSCTASGIDLNTYDMIWVRQAPGKGLEWVGIITYSGSRYYANWAKGRFTISKDNTKNTVYLQMNSLRAEDTAVYYCARDYMSGSHLWGQGTLVTVSS
VL: AYDMTQSPSSVSASVGDRVTIKCQASEDIYSFLAWYQQKPGKAPKLLIHSASSLASGVPSRFSGSGSGTDFTLTISSLQPEDFATYYCQQGYGKNNVDNAFGGGTKVEIK
notes: also called PL23006
B3: PL231H2 mAb (antibody, V domains shown)
VH: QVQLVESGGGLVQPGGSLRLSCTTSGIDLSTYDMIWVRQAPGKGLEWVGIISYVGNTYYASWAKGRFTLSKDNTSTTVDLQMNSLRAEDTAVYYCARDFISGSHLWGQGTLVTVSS
VL: AYDMTQSPSSVSASVGDRVTINCQASESISSFLSWYQQKPGKAPKLLIFSASTLASGVPSRFSGSGSGTDFTLTISSLQPEDFATYYCQQGYSKSNVDNAFGGGTKVEIK
notes: Anti-PD-L1 clone tested in mAb format
B4: PL004B9 Fc-scFv (Fc fusion, not shown: a dimerising Fc or GST; small tags and cut ends)
scFv: EVQLVESGGGLVQPGGSLRLSCTVSGIDLSVINMGWVRQAPGKGLEWIGTITYVGNTYYASWAKGRFTISKTSTTVDLKITSPTTEDTAVYYCARESGTIYYSYFNLWGQGTLVTVSSGGGGSGGGGSGGGGSGGGGSAFELTQSPSSLSASVGDRVTIKCQASESISNYLSWYQQIPGKVPKLLIYYASNLASGVPSRFSGSGSGTDFTLTISSLQPEDVATYYCQSYYGGGSAYTFGGGTKVEIK
notes: scFv at the C-terminus of an Fc
B5: PL230C6 Fc-scFv (Fc fusion)
scFv: QSVEESGGGLVQPGGSLRLSCTASGIDLNTYDMIWVRQAPGKGLEWVGIITYSGSRYYANWAKGRFTISKDNTKNTVYLQMNSLRAEDTAVYYCARDYMSGSHLWGQGTLVTVSSGGGGSGGGGSGGGGSGGGGSAYDMTQSPSSVSASVGDRVTIKCQASEDIYSFLAWYQQKPGKAPKLLIHSASSLASGVPSRFSGSGSGTDFTLTISSLQPEDFATYYCQQGYGKNNVDNAFGGGTKVEIK
notes: scFv at the C-terminus of an Fc; The Fc part is not specified; also called PL23006; not shown: The Fc part and the linker joining it to the scFv
B6: PL221G5 mAb (antibody, V domains shown)
VH: EVQLLESGGGLVQPGGSLRLSCAASGFSFSSGYDMCWVRQAPGKGLEWIACIAAGSAGITYDANWAKGRFTISRDNSKNTLYLQMNSLRAEDTAVYYCARSAFSFDYAMDLWGQGTLVTVSS
VL: DIQMTQSPSTLSASVGDRVTITCQASQSISSHLNWYQQKPGKAPKLLIYKASTLASGVPSRFSGSGSGTEFTLTISSLQPDDFATYYCQQGYSWGNVDNVFGGGTKVEIK
notes: as for B3
B7: PL004B9 mAb (antibody, V domains shown)
VH: EVQLVESGGGLVQPGGSLRLSCTVSGIDLSVINMGWVRQAPGKGLEWIGTITYVGNTYYASWAKGRFTISKTSTTVDLKITSPTTEDTAVYYCARESGTIYYSYFNLWGQGTLVTVSS
VL: AFELTQSPSSLSASVGDRVTIKCQASESISNYLSWYQQIPGKVPKLLIYYASNLASGVPSRFSGSGSGTDFTLTISSLQPEDVATYYCQSYYGGGSAYTFGGGTKVEIK
notes: as for B3
B8: PL221G5 Fc-scFv (Fc fusion)
scFv: EVQLLESGGGLVQPGGSLRLSCAASGFSFSSGYDMCWVRQAPGKGLEWIACIAAGSAGITYDANWAKGRFTISRDNSKNTLYLQMNSLRAEDTAVYYCARSAFSFDYAMDLWGQGTLVTVSSGGGGSGGGGSGGGGSGGGGSDIQMTQSPSTLSASVGDRVTITCQASQSISSHLNWYQQKPGKAPKLLIYKASTLASGVPSRFSGSGSGTEFTLTISSLQPDDFATYYCQQGYSWGNVDNVFGGGTKVEIK
notes: scFv at the C-terminus of an Fc; The Fc part is not specified; not shown: The Fc part and the linker joining it to the scFv
B9: PL221G5 IgG1 null (antibody, V domains shown)
VH: EVQLLESGGGLVQPGGSLRLSCAASGFSFSSGYDMCWVRQAPGKGLEWIACIAAGSAGITYDANWAKGRFTISRDNSKNTLYLQMNSLRAEDTAVYYCARSAFSFDYAMDLWGQGTLVTVSS
VL: DIQMTQSPSTLSASVGDRVTITCQASQSISSHLNWYQQKPGKAPKLLIYKASTLASGVPSRFSGSGSGTEFTLTISSLQPDDFATYYCQQGYSWGNVDNVFGGGTKVEIKR

T2 sequence (Q9NZQ7 19-238 limits assumed): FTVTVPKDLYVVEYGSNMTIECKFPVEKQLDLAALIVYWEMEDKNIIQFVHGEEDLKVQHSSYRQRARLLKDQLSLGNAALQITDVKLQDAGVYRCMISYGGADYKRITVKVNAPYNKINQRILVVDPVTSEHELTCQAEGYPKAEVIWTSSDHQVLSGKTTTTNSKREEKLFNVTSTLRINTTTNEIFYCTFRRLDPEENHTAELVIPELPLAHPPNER

For one experiment, the target named is T1, PD-1 antigen expressed on the surface of cells (human, UniProt Q15116 25-288).
T1 construct: whole, on cells; also called PD-1 receptor; CHO cell line expressing PD-1 antigen
T1 sequence (Q15116 25-288): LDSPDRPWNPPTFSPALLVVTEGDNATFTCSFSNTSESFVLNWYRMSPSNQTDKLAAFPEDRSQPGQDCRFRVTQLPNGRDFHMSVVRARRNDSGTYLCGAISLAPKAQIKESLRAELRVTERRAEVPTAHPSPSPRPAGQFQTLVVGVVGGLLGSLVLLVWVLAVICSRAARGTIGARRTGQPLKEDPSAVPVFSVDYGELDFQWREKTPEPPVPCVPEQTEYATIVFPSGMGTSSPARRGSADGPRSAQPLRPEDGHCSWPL
Briefly: Flow cytometry on CHO cells expressing PD-1, Alexa Fluor 647 anti-human secondary. As for the experimental part: (§1) Binding of the bispecific antibodies and their components to PD-1 antigen expressed on the surface of CHO cell line was assessed using FACS method. The bispecific antibodies were incubated with CHO cell line expressing PD-1 antigen and then detected with secondary anti-human antibodies directly conjugated to Alexa Fluor 647 fluorochrome. Cellular binding of the test antibodies was analyzed on a flow cytometer BD LSRFortessa.
Take B1: the “EC50 (read off the curve)” value was approximately 1 nM.

A further experiment concerns the target T2, PD-L1 recombinant protein (human, UniProt Q9NZQ7 19-238, limits assumed).
T2 construct: also called PD-L1 antigen
Briefly: ForteBio Octet RED96, PD-L1 immobilised, antibody in solution. From the text: The antigen was immobilized on the sensor chip surface and the tested antibodies were flown over the immobilized antigens.
On the technique in general: Biolayer interferometry detects binding as a change in optical thickness at a sensor tip.
Consider B2, for which the Kd worked out at 0.769 nM, the koff amounted to 0.000468 s⁻¹ and the kon worked out at 609000 M⁻¹ s⁻¹.
In the same order, the values of B3 are 0.781 nM, 0.000391 s⁻¹ and 501000 M⁻¹ s⁻¹.
Take B4: the Kd was determined as 1.54 nM, the koff is 0.000471 s⁻¹ and the kon was found to be 307000 M⁻¹ s⁻¹.
In the same order, the values of B5 are 0.868 nM, 0.000362 s⁻¹ and 418000 M⁻¹ s⁻¹.
As to B6, the Kd worked out at 0.483 nM, the koff was found to be 0.000276 s⁻¹ and the kon came out at 572000 M⁻¹ s⁻¹.
On the same counts, the results for B7 are 1.37 nM, 0.000695 s⁻¹ and 508000 M⁻¹ s⁻¹.
B8: the Kd worked out at 0.412 nM, the koff was found to be 0.000171 s⁻¹ and the kon stood at 414000 M⁻¹ s⁻¹.

In another experiment the target is T1, PD-1 antigen expressed on the surface …. Briefly: Flow cytometry on CHO cells expressing PD-1, Alexa Fluor 647 anti-human secondary. The value is printed beside the curves without a name; the text speaks of a KD. It is assigned to the lower, right curve (triangles) by its position. As for the experimental part:
as §1
In general terms: A flow cytometer gives signals particle by particle.
B1: the Kd is 1.04 nM.

For a further experiment, the target named is PD-L1 on CHO-PD-L1 cell line (human, UniProt Q9NZQ7 19-290). Description: cell-based or functional assay.
Chain of PD-L1 on CHO-PD-L1 cell line (Q9NZQ7 19-290): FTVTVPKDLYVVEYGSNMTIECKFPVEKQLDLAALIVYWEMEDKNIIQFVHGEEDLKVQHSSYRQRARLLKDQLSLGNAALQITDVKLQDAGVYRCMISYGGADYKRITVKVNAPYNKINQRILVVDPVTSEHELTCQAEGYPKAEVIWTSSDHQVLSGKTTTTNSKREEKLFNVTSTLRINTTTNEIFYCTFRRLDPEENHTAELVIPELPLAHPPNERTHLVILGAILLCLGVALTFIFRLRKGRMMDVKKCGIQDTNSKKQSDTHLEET
Take B9: the “EC50 (read off the curve), NFAT-luciferase reporter, Jurkat PD-1 cells with CHO-PD-L1 cells” value was approximately 0.3 nM.

Source of the values: US20200347137A1 (SYSTIMMUNE, published 2020).
